Experimental data reported in US20160024199A1 (US Dept. of Health and Human Services, published 2016).

Tests used:
[1] = biological target: T1, human insulin-like growth factor II (IGF-II) (human, UniProt P01344 25-91); experiment: Biacore, IgG1 format
T1 construct: also called biotinylated IGF-II

[2] = biological target: T2, recombinant human insulin-like growth factor I (IGF-I) (human, UniProt P05019 49-118); experiment: Biacore, IgG1 format
T2 construct: coated or coupled to a CM5 chip in ELISA and Biacore; also called biotinylated IGF-I
T2 sequence (P05019 49-118 limits assumed): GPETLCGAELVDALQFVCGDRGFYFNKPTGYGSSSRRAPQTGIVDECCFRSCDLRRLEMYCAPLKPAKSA

[3] = biological target: T1, human insulin-like growth factor II …; experiment: Biacore, IgG1 format (effective KD, avidity)
[4] = biological target: T2, recombinant human insulin-like growth …; experiment: Biacore, IgG1 format (effective KD, avidity)
[5] = biological target: T1, human insulin-like growth factor II …; experiment: cell-based or functional assay
[6] = biological target: T2, recombinant human insulin-like growth …; experiment: cell-based or functional assay
[7] = biological target: T1, human insulin-like growth factor II …; experiment: ELISA, serial dilutions of IgG on coated IGF-II, detected with HRP anti-human Fc antibody
[8] = biological target: T1, human insulin-like growth factor II …; experiment: ELISA on coated IGF-II after incubation of the antibody with an equal volume of human serum at 37 C for 0 to 9 days
[9] = biological target: T2, recombinant human insulin-like growth …; experiment: ELISA, serial dilutions of IgG on coated IGF-I, detected with HRP anti-human Fc antibody
[10] = biological target: human insulin (human); experiment: ELISA, 10 nM IgG on coated human insulin, detected with HRP anti-human Fc antibody
human insulin (human), sequence (chain, as listed by the source limits assumed, chain 1 of 2): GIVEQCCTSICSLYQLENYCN
human insulin (human), sequence (chain, as listed by the source limits assumed, chain 2 of 2): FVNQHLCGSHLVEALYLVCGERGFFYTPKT

[11] = biological target: T2, recombinant human insulin-like growth …; experiment: ELISA on coated IGF-I after incubation of the antibody with an equal volume of human serum at 37 C for 0 to 9 days
[12] = biological target: T1, human insulin-like growth factor II …; experiment: FACS titration of yeast-displayed scFv with biotinylated antigen
[13] = biological target: T2, recombinant human insulin-like growth …; experiment: as above
[14] = biological target: T1, human insulin-like growth factor II …; experiment: Biacore X100, antigen immobilized on CM5, soluble scFv injected
[15] = biological target: T2, recombinant human insulin-like growth …; experiment: as above
[16] = biological target: T1, human insulin-like growth factor II …; experiment: FACS titration of yeast-displayed scFv with biotinylated antigen; remark: listed apart in the source
[17] = biological target: T2, recombinant human insulin-like growth …; experiment: as above; remark: listed apart in the source
[18] = biological target: T1, human insulin-like growth factor II …; experiment: ELISA on coated IGF-II after incubation of the antibody with an equal volume of human serum at 37 C for 0 to 9 days; remark: listed apart in the source
[19] = biological target: T2, recombinant human insulin-like growth …; experiment: ELISA on coated IGF-I after incubation of the antibody with an equal volume of human serum at 37 C for 0 to 9 days; remark: listed apart in the source

T1 sequence (P01344 25-91): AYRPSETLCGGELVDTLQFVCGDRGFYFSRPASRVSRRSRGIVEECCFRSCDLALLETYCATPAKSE

Binder | growth inhibition of MCF-7 cells (MTS, 3 days; 2.5 nM IGF-I and 2.5 nM IGF-II added) [5] [nM] | growth inhibition of MCF-7 cells (MTS, 3 days; 2.5 nM IGF-I and 2.5 nM IGF-II added) [6] [nM] | EC50 (read off the curve) [9] [nM] | Kd [12] [nM] | Kd [13] [nM] | Kd [14] [nM] | koff [14] [s⁻¹] | kon [14] [M⁻¹ s⁻¹] | Kd [15] [nM] | koff [15] [s⁻¹] | kon [15] [M⁻¹ s⁻¹] | other results
IgG1 m708.5 (antibody, V domains shown, Human IgG1, converted from the scFv in vector pDR12 and expressed in 293 FreeStyle cells; also called m708.5 IgG; IgG m708.5) VH: QVQLQQLGAEVKMPGSSVKVSCKASGGTFSSYAISWVRQAPGQGLEWMGGIIPTLGIVKYAQKFQGRVTITADKSTSTAYMELSSLGSEDTAVYYCAGGPRGYSYNFDNWGQGTLVTVSS VL: DIQMTQSPSSLSASVGDRVTIVCRASQTISRYVNWYQQKPGKAPKLLIYAASSLQSGVSSRFSGSGSGTEFALTISSLQPEDFATYFCQQTYSPPITFGQGTRLEIKQ | > 40 | > 40 | ~0.4 |  |  |  |  |  |  |  |  | fold change of effective KD against the scFv [1]: 60 fold; fold change of effective KD against the scFv [2]: 1000 fold; Kd [3]: < 0.001 nM; Kd [4]: < 0.001 nM; EC50 (read off the curve) [7]: ~0.1 nM; EC50 (read off the curve) [8]: ~2 nM; binding result [10]: no binding (tested: 10 nM); EC50 (read off the curve) [11]: ~2 nM
m708.2 scFv (scFv, V domains shown, One-chain scFv; Biacore on the isolated soluble scFv from pComb3x) VH: QVQLQQPGAEVKKPGSSVKVSCKASGGTFSSYAISWVRQAPGQGLEWMGGIIPILGIANYAQKFQGRVTITADESTSTAYMELSSLRSEDTAVYYCARGPRGYSYNFDYWGQGTLVTVSS VL: DIQMTQSPSSLSASVGDRVTIACRASQTISRYLNWYQQKPGKAPKLLIYAASSLQSGVSSRFSGSGSGTEFTLTISSLQPEDFATYFCQQTYSPPITFGQGTRLEIKR |  |  |  | 1.1 | 3.9 | 1.8 | 0.0004 | 230000 | 2.2 | 0.0024 | 1.1e+06 | 
m708.5 scFv (scFv, V domains shown, One-chain scFv; also called scFv m708.5) VH: QVQLQQLGAEVKMPGSSVKVSCKASGGTFSSYAISWVRQAPGQGLEWMGGIIPTLGIVKYAQKFQGRVTITADKSTSTAYMELSSLGSEDTAVYYCAGGPRGYSYNFDNWGQGTLVTVSS VL: DIQMTQSPSSLSASVGDRVTIVCRASQTISRYVNWYQQKPGKAPKLLIYAASSLQSGVSSRFSGSGSGTEFALTISSLQPEDFATYFCQQTYSPPITFGQGTRLEIKQ |  |  |  | 0.041 | 0.1 | 0.061 | 0.00025 | 4.1e+06 | 0.2 | 0.00028 | 1.4e+06 | fold improvement of affinity against m708.2 [16]: 27 fold; fold improvement of affinity against m708.2 [17]: 39 fold
bispecific antibody m67 (bispecific antibody) chain 1: QVQLVQSGAEVKKPGASVKVSCKASGYTFTSYYMHWVRQAPGQGLEWMGIINPSGGSTSYAQKFQGRVTMTRDTSTSTVYMELSRLRSDDTAVYYCARDVQWLAYGMDVWGQGTTVTVSS chain 2: DIQMTQSPSSLSASVGDRVTITCRASQSISSYLNWYQQKPGRAPDLLINAASSLQSGVPSRFSGSGSGTDFTLTISSLQPEDFATYFCQQSYSLPFTFGGGTKVEIK chain 3: QVQLQQLGAEVKMPGSSVKVSCKASGGTFSSYAISWVRQAPGQGLEWMGGIIPTLGIVKYAQKFQGRVTITADKSTSTAYMELSSLGSEDTAVYYCAGGPRGYSYNFDNWGQGTLVTVSS chain 4: DIQMTQSPSSLSASVGDRVTIVCRASQTISRYVNWYQQKPGKAPKLLIYAASSLQSGVSSRFSGSGSGTEFALTISSLQPEDFATYFCQQTYSPPITFGQGTRLEIKQ |  |  |  |  |  |  |  |  |  |  |  | EC50 (read off the curve) [18]: ~3 nM; EC50 (read off the curve) [19]: ~1 nM
IgG1 m708.2 (antibody, V domains shown, Human IgG1 (pDR12, 293 FreeStyle cells); also called IgG m708.2; IgG708.2) VH: QVQLQQPGAEVKKPGSSVKVSCKASGGTFSSYAISWVRQAPGQGLEWMGGIIPILGIANYAQKFQGRVTITADESTSTAYMELSSLRSEDTAVYYCARGPRGYSYNFDYWGQGTLVTVSS VL: DIQMTQSPSSLSASVGDRVTIACRASQTISRYLNWYQQKPGKAPKLLIYAASSLQSGVSSRFSGSGSGTEFTLTISSLQPEDFATYFCQQTYSPPITFGQGTRLEIKR | > 80 | > 80 | ~3 |  |  |  |  |  |  |  |  | IGF-I-induced (1 nM) phosphorylation of IGF-IR in MCF-7 cells, immunoblot [6]: 10 nM
